The target of assay [1] is T1, human CLL1 on the surface of transfected cells (HEK293-CLL1; HEK-293T membrane proteome array) (human, UniProt Q5QGZ9 1-265).
T1 construct: whole, on cells; also called HEK293-CLL1 cells; CLL1 target antigen
T1 sequence (looked up): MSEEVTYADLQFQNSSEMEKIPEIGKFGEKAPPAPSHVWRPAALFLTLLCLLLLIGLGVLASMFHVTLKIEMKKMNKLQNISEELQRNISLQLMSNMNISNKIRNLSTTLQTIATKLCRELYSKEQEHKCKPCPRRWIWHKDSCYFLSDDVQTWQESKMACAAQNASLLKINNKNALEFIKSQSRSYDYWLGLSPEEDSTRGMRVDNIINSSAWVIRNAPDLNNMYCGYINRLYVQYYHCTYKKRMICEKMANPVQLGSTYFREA
The assay can be described thus: flow cytometry on HEK293 cells overexpressing CLL1, FITC goat anti-human IgG-Fc secondary; controls on the sheet: Cells + Secondary Antibody 1029.8, Blank 1041.3. The method, then:
In the present example, flow cytometry was used to detect the binding of antibodies ch23D7, ch27H4, and ch19C1 to CLL1 on HEK293 cells. The steps are as follows:
5×10⁵ HEK293 cells overexpressing CLL1 were resuspended in PBS+5% BSA and incubated at 4° C. for 30 min; antibodies of different concentrations (1 μg/mL˜0.01 μg/mL, 10-fold dilutions) were added and incubated at 4° C. for 60 min; after centrifugation and washing, a PBS+5% BSA solution containing FITC-labeled goat anti-human IgG-Fc secondary antibody (1:200, sigma, F9512) was added, and incubated on ice for 30 min in the dark; the cells were washed 3 times and then analyzed by flow cytometry;

In assay [2] the target is T2, human CLL1 ECD-His (human CLL1 extracellular domain with His tag) (human, UniProt Q5QGZ9 65-265).
T2 construct: also called antigen human CLL1 ECD-His; antigen CLL1; not shown: His tag
T2 sequence: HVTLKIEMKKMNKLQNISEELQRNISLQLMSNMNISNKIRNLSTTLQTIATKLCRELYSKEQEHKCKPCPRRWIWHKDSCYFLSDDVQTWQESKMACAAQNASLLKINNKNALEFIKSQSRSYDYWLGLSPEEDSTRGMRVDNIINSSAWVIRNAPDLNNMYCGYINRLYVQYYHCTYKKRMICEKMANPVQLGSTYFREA
Briefly: BLI (ForteBio), antibody on AHC sensor, 60 nM human CLL1 ECD-His, 1:1 model. As to the method: In short, 4 μg/mL antibody was loaded on the anti-human IgG capture (AHC) biosensor, the sensor was equilibrated offline for 30 min in the assay buffer, and the online monitoring was used for 60 s to establish the baseline; the antibody-loaded sensor was incubated with the 60 nM antigen human CLL1 ECD-His for 3 min, then transferred to the assay buffer, and the dissociation rate was measured after 3 min; the kinetic analysis was performed using a 1:1 binding model.

Assay [3] concerns the target T1, human CLL1 on the surface of …. The assay can be described thus: flow cytometry on HEK293 cells overexpressing CLL1. An excerpt: In the present example, flow cytometry was used to detect the binding of antibodies hz27H4H1L1, hz27H4H1L2 and CLL1 on HEK293 cells.
Assay [4] has as its target T2, human CLL1 ECD-His (human CLL1 …). The assay can be described thus: BLI (ForteBio), antibody on AHC sensor, 100 nM human CLL1 ECD-His, 1:1 model. The method, then:
In short, the antibody was loaded on the anti-human IgG capture (AHC) biosensor, the sensor was equilibrated in the assay buffer for 30 min offline, and monitored online for 60 s to establish the baseline; the antibody-loaded sensor was incubated with the 100 nM antigen human CLL1 ECD-His for 5 min, then transferred to the assay buffer, and the dissociation rate was measured after 5 min; the kinetic analysis was carried out using a 1:1 combination model.

Assay [5] deals with T3, Recombinant Cynomolgus Monkey CLL-1 Protein (his), Acro CLA-H5263 (cynomolgus monkey, UniProt A0A2K5WXQ4 71-271).
T3 construct: also called Analyte 2
T3 sequence: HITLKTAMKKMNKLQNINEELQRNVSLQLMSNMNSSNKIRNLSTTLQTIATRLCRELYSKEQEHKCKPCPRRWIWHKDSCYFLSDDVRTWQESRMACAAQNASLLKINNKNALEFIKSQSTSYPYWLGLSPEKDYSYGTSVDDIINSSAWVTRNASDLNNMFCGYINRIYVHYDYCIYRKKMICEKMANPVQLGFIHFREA
The assay can be described thus: SPR, antibody captured on Protein A chip, cynomolgus CLL-1 as analyte. For orientation: In SPR one partner is held on a chip, and binding of the other changes the refractive index at the surface.

Assay [6] concerns the target T4, Recombinant Human CLL-1 Protein (his), Acro CLA-H5245 (human, UniProt Q5QGZ9 65-265).
T4 construct: also called Analyte 1; not shown: his tag
T4 sequence (looked up): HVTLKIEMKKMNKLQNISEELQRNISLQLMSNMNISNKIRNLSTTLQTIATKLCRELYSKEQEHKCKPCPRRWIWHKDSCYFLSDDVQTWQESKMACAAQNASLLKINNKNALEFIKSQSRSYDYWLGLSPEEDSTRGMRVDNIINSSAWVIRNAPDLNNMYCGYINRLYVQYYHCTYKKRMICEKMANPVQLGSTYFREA
The assay can be described thus: SPR, antibody captured on Protein A chip, recombinant human CLL-1 as analyte 3.125-50 nM, 1:1 model.

This is an account of results in patent US20220396626A1 (GUANGZHOU BIO GENE TECHNOLOGY, published 2022).

B1: chimeric antibody ch27H4 (antibody, V domains shown)
VH: EVQLQQSGPELVKPGASVKISCKASGYSFTGYHMHWVKQSHVKSLEWIGRINPYNGAASHNQKFKDKATLTVDKSSSTAYMELHSLTSEDSAVYYCARGWDYDGGYYAMDYWGQGTSVTVSS
VL: DIVMSQSPSSLAVSVGEKVTMSCKSSQSLLYSDNQKNYLAWYQQKPGQSPKLLIYWASTRESGVPDRFTGSGSGTDFTLTISSVKAEDLAVYYCQQYYTYPYTFGGGTKLEIK
notes: also called parent antibody
B1: in assay [1], the “MFI at 0.01ug/ml” value worked out at 3510, the “MFI at 0.1ug/ml” value was 25200 and the “MFI at 1ug/ml” value was 163000. Moreover, in assay [2], the Kd (commonly the equilibrium constant for the complex coming apart) turned out to be 3.88 nM; the Response turned out to be 0.597; the koff (as a rule, the rate constant with which the complex falls apart) worked out at 0.00124 s⁻¹; the kon (commonly the rate constant with which the complex forms) amounted to 320000 M⁻¹ s⁻¹. Also, the midpoint of the response in assay [3], the EC50, lay at 0.358 µg/mL. In assay [4], the Kd amounted to 3.83 nM, the Response was 0.634, the off-rate constant (koff) is 0.00101 s⁻¹ and the association rate constant (kon) stood at 265000 M⁻¹ s⁻¹.

B2: 23D7-scFv-hFc (Fc fusion)
scFv: QIVLTQSPAIMSASPGEKVTMTCSASSSVSYIYWYQQKPGSSPGLLIYDTSNLASGVPVRFSGSGSGTSYSLTISRMEAEDAATYYCQQWSSFPPTFGAGTKLELKGGGGSGGGGSGGGGSQVQLQQPGSDLVRPGASVKLSCKASGYTFTRYWMHWVKQRPGHGLEWIGYIYPGSGTSNYDEKFKSKATLTVDTSSSTAYMQLSSLTSEDSAVYYCTREARYTMDYWGQGTSVTVSS
notes: VL-(G4S)3-VH structure with C-terminal human IgG1 Fc; also called Anti-CLL1 scFv-hIgG1; not shown: human IgG1 Fc fused at the C-terminus
For the molecule B2, in assay [5], the binding result was “no binding (tested: 50 nM)”. For the same molecule, in assay [6], the equilibrium dissociation constant (Kd) came out at 110 nM, the koff was 0.0322 s⁻¹ and the kon came out at 293000 M⁻¹ s⁻¹.

B3: humanized antibody hz27H4H1L1 (antibody, V domains shown)
VH: EVQLVQSGAEVKKPGASVKVSCKASGYTFTGYHMHWVRQAPGQRLEWMGRINPYNGAASHNQKFKDRVTITRDTSASTAYMELSSLRSEDTAVYYCARGWDYDGGYYAMDYWGQGTLVTVSS
VL: DIQMTQSPSSLSASVGDRVTITCKSSQSLLYSDNQKNYLAWYQQKPGKAPKLLIYWASTRESGVPSRFSGSGSGTDFTLTISSLQPEDFATYYCQQYYTYPYTFGQGTKLEIK
notes: Heavy chain variable region hz27H4H1 with light chain variable region hz27H4L1; also called h27H4H1L1 (complete antibody)
In assay [2], B3 showed a Kd of 2.29 nM, a Response of 0.612, an off-rate constant (koff) of 0.000862 s⁻¹ and a kon of 377000 M⁻¹ s⁻¹. Moreover, in assay [3], the concentration for a half-maximal effect (EC50) (usually the concentration needed to bring the measured effect to its halfway point) worked out at 0.262 µg/mL. In addition, in assay [5], the binding result is on record as “no binding (tested: 50 nM)”. Moreover, in assay [6], the Kd was determined as 1.12 nM, the off-rate (koff) was found to be 0.00549 s⁻¹ and the kon was determined as 4.91e+06 M⁻¹ s⁻¹.

B4: humanized antibody hz27H4H1L3 (antibody, V domains shown)
VH: EVQLVQSGAEVKKPGASVKVSCKASGYTFTGYHMHWVRQAPGQRLEWMGRINPYNGAASHNQKFKDRVTITRDTSASTAYMELSSLRSEDTAVYYCARGWDYDGGYYAMDYWGQGTLVTVSS
VL: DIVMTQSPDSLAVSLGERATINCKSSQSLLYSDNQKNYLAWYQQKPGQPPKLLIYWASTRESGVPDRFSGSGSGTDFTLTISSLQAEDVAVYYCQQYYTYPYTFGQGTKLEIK
notes: Heavy chain variable region hz27H4H1 with light chain variable region hz27H4L3
In assay [2], B4 yielded a dissociation constant (Kd) of 2.49 nM, a Response of 0.722, an off-rate (koff) of 0.00109 s⁻¹ and a kon of 438000 M⁻¹ s⁻¹.

B5: chimeric antibody ch19C1 (antibody, V domains shown)
VH: QVQLQQSGAELMKPGASVKISCKATGYTFSSYWIEWVKQRPGHGLEWIGEIFPGSGSIKYNEKFKGKATFTADTSSNTAYMQLSSLTSEDSAVHYCARGGTYNDYSLFDYWGQGTTLTVSS
VL: QIVLTQSPAIMSASPGEKVTMTCSASSSVSYMYWYQQKPGSSPRLLIFDTSNLASGVPVRFSGSGSGTSYSLTISRMEAEDAATYYCQQWSSYPLTFGAGTKLELK
With B5, in assay [1], the “MFI at 0.01ug/ml” value is 4610, the “MFI at 0.1ug/ml” value amounted to 35900 and the “MFI at 1ug/ml” value worked out at 163000. In assay [4], the Kd came to 10.9 nM, the Response was determined as 0.619, the koff stood at 0.00197 s⁻¹ and the on-rate constant (kon) was 180000 M⁻¹ s⁻¹.

B6: chimeric antibody ch23D7 (antibody, V domains shown)
VH: QVQLQQPGSDLVRPGASVKLSCKASGYTFTRYWMHWVKQRPGHGLEWIGYIYPGSGTSNYDEKFKSKATLTVDTSSSTAYMQLSSLTSEDSAVYYCTREARYTMDYWGQGTSVTVSS
VL: QIVLTQSPAIMSASPGEKVTMTCSASSSVSYIYWYQQKPGSSPGLLIYDTSNLASGVPVRFSGSGSGTSYSLTISRMEAEDAATYYCQQWSSFPPTFGAGTKLELK
As to B6, in assay [1], the “MFI at 0.01ug/ml” value stood at 4690, the “MFI at 0.1ug/ml” value was 34600 and the “MFI at 1ug/ml” value was found to be 151000. In assay [4], the Kd turned out to be 2.19 nM, the Response is 0.654, the koff was 0.000284 s⁻¹ and the kon stood at 130000 M⁻¹ s⁻¹.

B7: 19C1-scFv-hFc (Fc fusion)
scFv: QIVLTQSPAIMSASPGEKVTMTCSASSSVSYMYWYQQKPGSSPRLLIFDTSNLASGVPVRFSGSGSGTSYSLTISRMEAEDAATYYCQQWSSYPLTFGAGTKLELKGGGGSGGGGSGGGGSQVQLQQSGAELMKPGASVKISCKATGYTFSSYWIEWVKQRPGHGLEWIGEIFPGSGSIKYNEKFKGKATFTADTSSNTAYMQLSSLTSEDSAVHYCARGGTYNDYSLFDYWGQGTTLTVSS
notes: as for B2
Consider B7, for which, in assay [5], the binding result is recorded as “no binding (tested: 50 nM)”. In addition, in assay [6], the equilibrium dissociation constant (Kd) is 5.75 nM, the koff was 0.00509 s⁻¹ and the kon was 886000 M⁻¹ s⁻¹.

B8: 27H4-scFv-hFc (Fc fusion)
scFv: DIVMSQSPSSLAVSVGEKVTMSCKSSQSLLYSDNQKNYLAWYQQKPGQSPKLLIYWASTRESGVPDRFTGSGSGTDFTLTISSVKAEDLAVYYCQQYYTYPYTFGGGTKLEIKGGGGSGGGGSGGGGSEVQLQQSGPELVKPGASVKISCKASGYSFTGYHMHWVKQSHVKSLEWIGRINPYNGAASHNQKFKDKATLTVDKSSSTAYMELHSLTSEDSAVYYCARGWDYDGGYYAMDYWGQGTSVTVSS
notes: as for B2
Consider B8, for which the binding result in assay [5] is “no binding (tested: 50 nM)”. In addition, in assay [6], the Kd was found to be 3.06 nM, the koff came out at 0.0126 s⁻¹ and the kon was 4.11e+06 M⁻¹ s⁻¹.

B9: anti-human CLL-1 control antibody 1075.7 (antibody)
scFv: ENVLTQSPAIMSASPGEKVTMTCRASSNVISSYVHWYQQRSGASPKLWIYSTSNLASGVPARFSGSGSGTSYSLTISSVEAEDAATYYCQQYSGYPLTFGAGTKLELGGGGSGGGGSGGGGSDIQLQESGPGLVKPSQSLSLTCSVTGYSITSAYYWNWIRQFPGNKLEWMGYISYDGRNNYNPSLKNRISITRDTSKNQFFLKLNSVTTEDTATYYCAKEGDYDVGNYYAMDYWGQGTSVTVSS
notes: it was captured by anti-human IgG sensors and detected with anti-human IgG-Fc, so a human Fc was present; also called ch1075.7
For the molecule B9, in assay [1], the “MFI at 0.01ug/ml” value amounted to 4580, the “MFI at 0.1ug/ml” value was 35600 and the “MFI at 1ug/ml” value turned out to be 222000. Further, in assay [2], binding was characterised by a dissociation constant (Kd) of 6.76 nM, the Response came out at 0.219, the koff is 0.000997 s⁻¹ and the association rate constant (kon) was 148000 M⁻¹ s⁻¹. This molecule had an EC50 in assay [3] of 0.245 µg/mL. In assay [4], the Kd was determined as 0.414 nM, the Response was determined as 0.236, the koff is 4.48e-05 s⁻¹ and the kon stood at 108000 M⁻¹ s⁻¹.
